The target in this assay is FasR on T-cells (Jurkat cells) (UniProt P25445). Kind of assay: cell-based or functional assay.
FasR on T-cells (Jurkat cells), sequence (P25445 26-335 limits assumed): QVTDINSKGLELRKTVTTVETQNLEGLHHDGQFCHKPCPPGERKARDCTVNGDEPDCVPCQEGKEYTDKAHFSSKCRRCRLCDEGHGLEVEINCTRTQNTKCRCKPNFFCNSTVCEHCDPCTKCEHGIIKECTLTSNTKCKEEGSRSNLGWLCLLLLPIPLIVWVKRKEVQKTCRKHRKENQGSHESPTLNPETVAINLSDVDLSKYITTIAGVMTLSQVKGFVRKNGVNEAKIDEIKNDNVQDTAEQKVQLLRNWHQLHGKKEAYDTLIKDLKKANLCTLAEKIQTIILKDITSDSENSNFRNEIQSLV

streptavidin-FasL, sequence (P22629 37-163): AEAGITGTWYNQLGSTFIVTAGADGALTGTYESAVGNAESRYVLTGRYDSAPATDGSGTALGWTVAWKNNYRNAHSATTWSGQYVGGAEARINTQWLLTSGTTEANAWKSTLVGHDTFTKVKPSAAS

Substance “streptavidin-FasL (from UniProt P22629 37-163) (ligand)” registered an apoptosis in Jurkat cells, flow cytometry (Annexin V); SA-FasL tethered on exosomes, 1 µg exosome protein of 17.5% and an apoptosis in Jurkat cells, flow cytometry (Annexin V); SA-FasL tethered on exosomes, 20 µg exosome protein of 99.3%.
